Read-outs that look alike come from different tables or passages of the source.
Columns and labels:
[1] = molecular target: IL2Rα/β/γ receptor (high affinity IL2 receptor) on YT/STAT5-Luc cells expressing endogenous or over-expressed human IL2Rα (human) (UniProt P01589); assay: cell-based or functional assay
[2] = molecular target: IL2Rβ/γ receptor (low/medium affinity IL2 receptor) on YT/STAT5-Luc cells with IL2Rα knocked out (human) (UniProt P14784); assay: cell-based or functional assay
[3] = molecular target: human PD1 (amino acids M1-L288 of NP_005009.2 with a 2Q=>E mutation) stably expressed on engineered reporter cells (human) (UniProt Q15116); assay: cell-based or functional assay
[4] = molecular target: IL2Rα/β/γ receptor (high affinity IL2 receptor) on YT/STAT5-Luc cells expressing endogenous or over-expressed human IL2Rα (human) (UniProt P01589); assay: flow cytometry on YT/STAT5-Luc/IL2Ra OE (CD25 OE/PD1 OE) cells, AF647 anti-human IgG secondary, gMFI on a log axis
[5] = molecular target: IL2Rα/β/γ receptor (high affinity IL2 receptor) on YT/STAT5-Luc cells expressing endogenous or over-expressed human IL2Rα (human) (UniProt P01589); assay: flow cytometry, YT/STAT5-Luc CD25 OE/PD1 OE cells, AF647 anti-human IgG secondary
[6] = molecular target: IL2Rα/β/γ receptor (high affinity IL2 receptor) on YT/STAT5-Luc cells expressing endogenous or over-expressed human IL2Rα (human) (UniProt P01589); assay: cell-based or functional assay; remark: listed apart in the source
[7] = molecular target: IL2Rβ/γ receptor (low/medium affinity IL2 receptor) on YT/STAT5-Luc cells with IL2Rα knocked out (human) (UniProt P14784); assay: cell-based or functional assay; remark: listed apart in the source
[8] = molecular target: IL2Rβ/γ receptor (low/medium affinity IL2 receptor) on YT/STAT5-Luc cells with IL2Rα knocked out (human) (UniProt P14784); assay: flow cytometry, YT/STAT5-Luc CD25 KO/PD1 OE cells, AF647 anti-human IgG secondary

EC50, STAT5-Luc IL2 reporter assay, YT/Stat5-Luc/hIL2Rα [1]	EC50, STAT5-Luc IL2 reporter assay, YT/Stat5-Luc/hIL2Rα/hPD1 [1]	Fold induction, STAT5-Luc IL2 reporter assay, YT/Stat5-Luc [1]	Fold induction, STAT5-Luc IL2 reporter assay, YT/Stat5-Luc/hIL2Rα [1]	Fold induction, STAT5-Luc IL2 reporter assay, YT/Stat5-Luc/hIL2Rα/hPD1 [1]	Fold induction, STAT5-Luc IL2 reporter assay, YT/Stat5-Luc/hPD1 [1]	Fold induction, STAT5-Luc IL2 reporter assay, YT/Stat5-Luc/IL2Rα KO [2]	Fold induction, STAT5-Luc IL2 reporter assay, YT/Stat5-Luc/IL2Rα KO/hPD1 [2]	Fold induction, AP1-Luc PD1 antagonistic assay [3]	EC50 (M), STAT5-Luc IL2 reporter assay, CD25 OE/PD1 OE [1]	Max Fold induction, STAT5-Luc IL2 reporter assay, CD25 OE/PD1 OE [1]	Max Fold induction, STAT5-Luc IL2 reporter assay, CD25 KO/PD1 OE [2]	Substance	further results
24.1 pM	23.2 pM	4.96 fold	5.49 fold	3.06 fold	7.97 fold	5.4 fold	3.87 fold					IL2-Fc (Fc fusion)	EC50, STAT5-Luc IL2 reporter assay, YT/Stat5-Luc [1]: 402 pM; EC50, STAT5-Luc IL2 reporter assay, YT/Stat5-Luc/hPD1 [1]: 392 pM; EC50, STAT5-Luc IL2 reporter assay, YT/Stat5-Luc/IL2Rα KO [2]: 1330 pM; EC50, STAT5-Luc IL2 reporter assay, YT/Stat5-Luc/IL2Rα KO/hPD1 [2]: 442 pM
								1.13 fold				Isotype control 1 (antibody)	
								1.2 fold				Isotype control 2 (antibody)	
		1.07 fold	1.07 fold	1 fold	1.08 fold	1.12 fold	1.06 fold					Isotype control (IL2 reporter assay, Tables 8 and 9) (antibody)	
									1.41e-09 M	7.78 fold	1.25 fold	Isotype-IL2-IL2Ra	
									3.31e-10 M	7 fold	4.37 fold	REGN9903 (isotype-IL2Rα-IL2 control)	
1630 pM	971 pM	3.21 fold	4.87 fold	2.77 fold	4.52 fold	2.62 fold	2.59 fold	1.08 fold				REGN9904 (non-targeted IL2Rα-IL2)	EC50 (read off the curve) [4]: 10000 pM; EC50, PD1 competition STAT5-Luc assay, YT/STAT5-Luc/hIL2Rα/hPD1, no antibody ('-') [1]: 703 pM; EC50, PD1 competition STAT5-Luc assay, YT/STAT5-Luc/hIL2Rα/hPD1, with Comp 1 [1]: 918 pM; EC50, PD1 competition STAT5-Luc assay, YT/STAT5-Luc/hIL2Rα/hPD1, with Comp 2 [1]: 938 pM; EC50, PD1 competition STAT5-Luc assay, YT/STAT5-Luc/hIL2Rα/hPD1, with REGN2810 [1]: 651 pM; EC50, PD1 competition STAT5-Luc assay, YT/STAT5-Luc/hIL2Rα/hPD1, with isotype control [1]: 791 pM; Fold induction (highest gMFI relative to gMFI without antibody) [5]: 33.1 fold; Max gMFI [5]: 77600 gMFI; EC50 (M), STAT5-Luc IL2 reporter assay, CD25 OE/PD1 OE [6]: 7.69e-10 M; Max Fold induction, STAT5-Luc IL2 reporter assay, CD25 OE/PD1 OE [6]: 4.57 fold; Max Fold induction, STAT5-Luc IL2 reporter assay, CD25 KO/PD1 OE [7]: 3.24 fold; Fold induction (highest gMFI relative to gMFI without antibody) [8]: 1.7 fold; Max gMFI [8]: 3990 gMFI
848 pM	35.3 pM	3.29 fold	5.19 fold	2.88 fold	6.39 fold	2.85 fold	3.54 fold	3.04 fold	3.3e-11 M	7.36 fold	5.72 fold	REGN10597	EC50, STAT5-Luc IL2 reporter assay, YT/Stat5-Luc/hPD1 [1]: 175 pM; EC50 (M), AP1-Luc PD1 antagonistic assay [3]: 1.26e-08 M; EC50, PD1 competition STAT5-Luc assay, YT/STAT5-Luc/IL2Rα KO/hPD1, no antibody ('-') [3]: 128 pM; EC50, PD1 competition STAT5-Luc assay, YT/STAT5-Luc/IL2Rα KO/hPD1, with Comp 1 [3]: 306 pM; EC50, PD1 competition STAT5-Luc assay, YT/STAT5-Luc/IL2Rα KO/hPD1, with Comp 2 [3]: 281 pM; EC50, PD1 competition STAT5-Luc assay, YT/STAT5-Luc/IL2Rα KO/hPD1, with REGN2810 [3]: 222 pM; EC50, PD1 competition STAT5-Luc assay, YT/STAT5-Luc/IL2Rα KO/hPD1, with isotype control [3]: 132 pM; EC50, PD1 competition STAT5-Luc assay, YT/STAT5-Luc/hIL2Rα/hPD1, no antibody ('-') [3]: 54.5 pM; EC50, PD1 competition STAT5-Luc assay, YT/STAT5-Luc/hIL2Rα/hPD1, with Comp 1 [3]: 76.5 pM; EC50, PD1 competition STAT5-Luc assay, YT/STAT5-Luc/hIL2Rα/hPD1, with Comp 2 [3]: 80.5 pM; EC50, PD1 competition STAT5-Luc assay, YT/STAT5-Luc/hIL2Rα/hPD1, with REGN2810 [3]: 117 pM; EC50, PD1 competition STAT5-Luc assay, YT/STAT5-Luc/hIL2Rα/hPD1, with isotype control [3]: 70.9 pM; EC50 (M), STAT5-Luc IL2 reporter assay, CD25 KO/PD1 OE [2]: 5.78e-11 M; EC50, STAT5-Luc IL2 reporter assay, YT/Stat5-Luc/IL2Rα KO/hPD1 [2]: 191 pM; EC50 (M), STAT5-Luc IL2 reporter assay, CD25 OE/PD1 OE [6]: 3.71e-11 M; Max Fold induction, STAT5-Luc IL2 reporter assay, CD25 OE/PD1 OE [6]: 5.1 fold; EC50 (M), STAT5-Luc IL2 reporter assay, CD25 KO/PD1 OE [7]: 8.38e-11 M; Max Fold induction, STAT5-Luc IL2 reporter assay, CD25 KO/PD1 OE [7]: 4.36 fold
